Laboratory results published in PMC8820655 (bioRxiv, 2022).

Key:
[1] = molecular target: His-tagged RBD protein of SARS-CoV-2 (SARS-CoV-2, wild type (Wuhan-Hu-1 …, UniProt P0DTC2)); assay: BLI
[2] = molecular target: Fc-tagged wild-type RBD (SARS-CoV-2, UniProt P0DTC2); assay: BLI

Binder | fold change of the avidity KD, RBD loaded at 1000 ng/ml against 40 ng/ml [1] [fold] | IC50 [2] [nM]
CoV2–14 (antibody, V domains shown) VH: EVQLQQSGPGLVKPSQTLSLTCAISGDSVSSNSAAWNWIRQSPSRGLEWLGRTYYRSKWYNDYAVSVKSRITINPDTSKNQFSLQLNSVTPEDTAVYYCAREEQQLVHDYYYYGMDVWGQGTMVTVSS VL: QAVVTQPASVSGSPGQSITISCTGTSSDIGAYNYISWYQQHPGKAPKLIIYEVSNRPSGISYRFSGSKSGNTASLTISGLQAEDEANYYCSSYAGSISFGGGTKVTVL | 2 | 10.6
CoV2–06 (antibody, V domains shown) VH: QVELQESGPGLVKPSGTLSLTCAVSGGSISSNNWWTWVRQPPGKGLEWIGEIHHSGGTNYNPSLKSRVTMSVDKSKNQFSLNLYSVTAADTAVYYCTRDRAGGTYSGFDFWGQGTLVTVSS VL: QAVVTQPASVSGSPGQSITISCTGTSSDVGGYNYVSWYQQHPGKAPKLMIYDVSNRPSGVSNRFSGSKSGNTASLTISGLQAEDEADYYCSSYTSSSTVVFGGGTKVTVL | 46 | 39.8
